Source: patent US6046310, “FAS ligand fusion proteins and their uses” (Protein Design Labs., Inc., dated 2000)

Tests used:
[1] = molecular target: T1, Fas on the cell surface of human cell lines (MOLT-4, CESS, T47D) (human, UniProt P25445); assay: cell-based or functional assay
[2] = molecular target: T1, Fas on the cell surface of human cell …; assay: flow cytometry on MOLT-4 cells (express Fas but not the antigen for HuABL364), anti-human IgG FITC
Procedure: MOLT-4, a human T lymphocyte line that expresses Fas on the cell surface (B. Trauth et al., *Science*, 245:301, 1989, incorporated herein by reference) but not the antigen for HuABL364, was stained by incubation with protein G-purified HuABL364 lg-FasL followed by incubation with an anti-human IgG FITC reagent (Jackson Immunoresearch, #715-096-151). Positive staining by HuABL364 Ig-FasL was detected by flow cytometry, compared to negative staining with the HuABL364 antibody.

% apoptotic cells, CESS [1] [% apoptotic cells]	% apoptotic cells, T47D [1] [% apoptotic cells]	binding result [2]	Binder
88	91		HuABL364 Ig-FasL5 (other) heavy (part 1 of 2): EVQLLESGGGLVQPGGSLRLSCAASGFTFSDYYMYWVRQAPEKRLEWVAYISNGGGSSHYVDSVKGRFTISRDNAKNTLYLQMNSLRAEDTALYHCARGMDYGAWFAYWGQGTLVTVSS heavy (part 2 of 2): GTGHPSPPPEKKELRKVAHLTGKSNSRSMPLEWEDTYGIVLLSGVKYKKGGLVINETGLYFVYSKVYFRGQSCNNLPLSHKVYMRNSKYPQDLVMMEGKMMSYCTTGQMWARSSYLGAVFNLTSADHLYVNVSELSLVNFEESQTFFGLYKL light: DIVMTQSPLSLPVTPGEPASISCRSSQSIVHSNGNTYLEWYLQKPGQSPQLLISKVSNRFSGVPDRFSGSGSGTDFTLKISRVEAEDVGVYYCFQGSHVPFTFGQGTKLEIK
90	95		HuABL364 Ig-FasL5 M229A (other) heavy (part 1 of 2): EVQLLESGGGLVQPGGSLRLSCAASGFTFSDYYMYWVRQAPEKRLEWVAYISNGGGSSHYVDSVKGRFTISRDNAKNTLYLQMNSLRAEDTALYHCARGMDYGAWFAYWGQGTLVTVSS heavy (part 2 of 2): GTGHPSPPPEKKELRKVAHLTGKSNSRSMPLEWEDTYGIVLLSGVKYKKGGLVINETGLYFVYSKVYFRGQSCNNLPLSHKVYMRNSKYPQDLVMMEGKAMSYCTTGQMWARSSYLGAVFNLTSADHLYVNVSELSLVNFEESQTFFGLYKL light: DIVMTQSPLSLPVTPGEPASISCRSSQSIVHSNGNTYLEWYLQKPGQSPQLLISKVSNRFSGVPDRFSGSGSGTDFTLKISRVEAEDVGVYYCFQGSHVPFTFGQGTKLEIK
81	91		HuABL364 Ig-FasL5 I168A (other) heavy (part 1 of 2): EVQLLESGGGLVQPGGSLRLSCAASGFTFSDYYMYWVRQAPEKRLEWVAYISNGGGSSHYVDSVKGRFTISRDNAKNTLYLQMNSLRAEDTALYHCARGMDYGAWFAYWGQGTLVTVSS heavy (part 2 of 2): GTGHPSPPPEKKELRKVAHLTGKSNSRSMPLEWEDTYGAVLLSGVKYKKGGLVINETGLYFVYSKVYFRGQSCNNLPLSHKVYMRNSKYPQDLVMMEGKMMSYCTTGQMWARSSYLGAVFNLTSADHLYVNVSELSLVNFEESQTFFGLYKL light: DIVMTQSPLSLPVTPGEPASISCRSSQSIVHSNGNTYLEWYLQKPGQSPQLLISKVSNRFSGVPDRFSGSGSGTDFTLKISRVEAEDVGVYYCFQGSHVPFTFGQGTKLEIK
24	16		HuABL364 Ig-FasL5 Y244A (other) heavy (part 1 of 2): EVQLLESGGGLVQPGGSLRLSCAASGFTFSDYYMYWVRQAPEKRLEWVAYISNGGGSSHYVDSVKGRFTISRDNAKNTLYLQMNSLRAEDTALYHCARGMDYGAWFAYWGQGTLVTVSS heavy (part 2 of 2): GTGHPSPPPEKKELRKVAHLTGKSNSRSMPLEWEDTYGIVLLSGVKYKKGGLVINETGLYFVYSKVYFRGQSCNNLPLSHKVYMRNSKYPQDLVMMEGKMMSYCTTGQMWARSSALGAVFNLTSADHLYVNVSELSLVNFEESQTFFGLYKL light: DIVMTQSPLSLPVTPGEPASISCRSSQSIVHSNGNTYLEWYLQKPGQSPQLLISKVSNRFSGVPDRFSGSGSGTDFTLKISRVEAEDVGVYYCFQGSHVPFTFGQGTKLEIK
87	98		HuABL364 Ig-FasL5 L170A (other) heavy (part 1 of 2): EVQLLESGGGLVQPGGSLRLSCAASGFTFSDYYMYWVRQAPEKRLEWVAYISNGGGSSHYVDSVKGRFTISRDNAKNTLYLQMNSLRAEDTALYHCARGMDYGAWFAYWGQGTLVTVSS heavy (part 2 of 2): GTGHPSPPPEKKELRKVAHLTGKSNSRSMPLEWEDTYGIVALSGVKYKKGGLVINETGLYFVYSKVYFRGQSCNNLPLSHKVYMRNSKYPQDLVMMEGKMMSYCTTGQMWARSSYLGAVFNLTSADHLYVNVSELSLVNFEESQTFFGLYKL light: DIVMTQSPLSLPVTPGEPASISCRSSQSIVHSNGNTYLEWYLQKPGQSPQLLISKVSNRFSGVPDRFSGSGSGTDFTLKISRVEAEDVGVYYCFQGSHVPFTFGQGTKLEIK
25	10		HuABL364 Ig-FasL5 Y192A (other) heavy (part 1 of 2): EVQLLESGGGLVQPGGSLRLSCAASGFTFSDYYMYWVRQAPEKRLEWVAYISNGGGSSHYVDSVKGRFTISRDNAKNTLYLQMNSLRAEDTALYHCARGMDYGAWFAYWGQGTLVTVSS heavy (part 2 of 2): GTGHPSPPPEKKELRKVAHLTGKSNSRSMPLEWEDTYGIVLLSGVKYKKGGLVINETGLYFVASKVYFRGQSCNNLPLSHKVYMRNSKYPQDLVMMEGKMMSYCTTGQMWARSSYLGAVFNLTSADHLYVNVSELSLVNFEESQTFFGLYKL light: DIVMTQSPLSLPVTPGEPASISCRSSQSIVHSNGNTYLEWYLQKPGQSPQLLISKVSNRFSGVPDRFSGSGSGTDFTLKISRVEAEDVGVYYCFQGSHVPFTFGQGTKLEIK
24	11		HuABL364 Ig-FasL5 Y189A (other) heavy (part 1 of 2): EVQLLESGGGLVQPGGSLRLSCAASGFTFSDYYMYWVRQAPEKRLEWVAYISNGGGSSHYVDSVKGRFTISRDNAKNTLYLQMNSLRAEDTALYHCARGMDYGAWFAYWGQGTLVTVSS heavy (part 2 of 2): GTGHPSPPPEKKELRKVAHLTGKSNSRSMPLEWEDTYGIVLLSGVKYKKGGLVINETGLAFVYSKVYFRGQSCNNLPLSHKVYMRNSKYPQDLVMMEGKMMSYCTTGQMWARSSYLGAVFNLTSADHLYVNVSELSLVNFEESQTFFGLYKL light: DIVMTQSPLSLPVTPGEPASISCRSSQSIVHSNGNTYLEWYLQKPGQSPQLLISKVSNRFSGVPDRFSGSGSGTDFTLKISRVEAEDVGVYYCFQGSHVPFTFGQGTKLEIK
		no binding	HuABL364 antibody (antibody, V domains shown) VH: EVQLLESGGGLVQPGGSLRLSCAASGFTFSDYYMYWVRQAPEKRLEWVAYISNGGGSSHYVDSVKGRFTISRDNAKNTLYLQMNSLRAEDTALYHCARGMDYGAWFAYWGQGTLVTVSS VL: DIVMTQSPLSLPVTPGEPASISCRSSQSIVHSNGNTYLEWYLQKPGQSPQLLISKVSNRFSGVPDRFSGSGSGTDFTLKISRVEAEDVGVYYCFQGSHVPFTFGQGTKLEIK
26	15		HuABL364 Ig-FasL5 H148S (other) heavy (part 1 of 2): EVQLLESGGGLVQPGGSLRLSCAASGFTFSDYYMYWVRQAPEKRLEWVAYISNGGGSSHYVDSVKGRFTISRDNAKNTLYLQMNSLRAEDTALYHCARGMDYGAWFAYWGQGTLVTVSS heavy (part 2 of 2): GTGHPSPPPEKKELRKVASLTGKSNSRSMPLEWEDTYGIVLLSGVKYKKGGLVINETGLYFVYSKVYFRGQSCNNLPLSHKVYMRNSKYPQDLVMMEGKMMSYCTTGQMWARSSYLGAVFNLTSADHLYVNVSELSLVNFEESQTFFGLYKL light: DIVMTQSPLSLPVTPGEPASISCRSSQSIVHSNGNTYLEWYLQKPGQSPQLLISKVSNRFSGVPDRFSGSGSGTDFTLKISRVEAEDVGVYYCFQGSHVPFTFGQGTKLEIK
87	95		HuABL364 Ig-FasL5 V248A (other) heavy (part 1 of 2): EVQLLESGGGLVQPGGSLRLSCAASGFTFSDYYMYWVRQAPEKRLEWVAYISNGGGSSHYVDSVKGRFTISRDNAKNTLYLQMNSLRAEDTALYHCARGMDYGAWFAYWGQGTLVTVSS heavy (part 2 of 2): GTGHPSPPPEKKELRKVAHLTGKSNSRSMPLEWEDTYGIVLLSGVKYKKGGLVINETGLYFVYSKVYFRGQSCNNLPLSHKVYMRNSKYPQDLVMMEGKMMSYCTTGQMWARSSYLGAAFNLTSADHLYVNVSELSLVNFEESQTFFGLYKL light: DIVMTQSPLSLPVTPGEPASISCRSSQSIVHSNGNTYLEWYLQKPGQSPQLLISKVSNRFSGVPDRFSGSGSGTDFTLKISRVEAEDVGVYYCFQGSHVPFTFGQGTKLEIK
32	88		HuABL364 Ig-FasL5 Y232A (other) heavy (part 1 of 2): EVQLLESGGGLVQPGGSLRLSCAASGFTFSDYYMYWVRQAPEKRLEWVAYISNGGGSSHYVDSVKGRFTISRDNAKNTLYLQMNSLRAEDTALYHCARGMDYGAWFAYWGQGTLVTVSS heavy (part 2 of 2): GTGHPSPPPEKKELRKVAHLTGKSNSRSMPLEWEDTYGIVLLSGVKYKKGGLVINETGLYFVYSKVYFRGQSCNNLPLSHKVYMRNSKYPQDLVMMEGKMMSACTTGQMWARSSYLGAVFNLTSADHLYVNVSELSLVNFEESQTFFGLYKL light: DIVMTQSPLSLPVTPGEPASISCRSSQSIVHSNGNTYLEWYLQKPGQSPQLLISKVSNRFSGVPDRFSGSGSGTDFTLKISRVEAEDVGVYYCFQGSHVPFTFGQGTKLEIK
